Test results published in patent publication US20130184211A1 (NEW YORK UNIVERSITY, published 2013).

T1: 1:1 binary complex of the ectodomains of FGFR1c and Klotho (human; murine, UniProt O35082 35-982)
T1 construct: range 35-982; also called FGFR1c-Klotho complex; binary FGFR1c-Klotho complex; not shown: C-terminal FLAG tag
T1 sequence 1: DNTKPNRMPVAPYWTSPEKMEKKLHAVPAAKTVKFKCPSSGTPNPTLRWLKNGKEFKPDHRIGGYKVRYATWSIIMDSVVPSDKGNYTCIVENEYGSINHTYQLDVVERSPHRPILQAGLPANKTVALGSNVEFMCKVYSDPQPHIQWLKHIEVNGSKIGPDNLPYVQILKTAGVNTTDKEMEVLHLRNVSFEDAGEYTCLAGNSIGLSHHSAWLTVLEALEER
T1 sequence 2: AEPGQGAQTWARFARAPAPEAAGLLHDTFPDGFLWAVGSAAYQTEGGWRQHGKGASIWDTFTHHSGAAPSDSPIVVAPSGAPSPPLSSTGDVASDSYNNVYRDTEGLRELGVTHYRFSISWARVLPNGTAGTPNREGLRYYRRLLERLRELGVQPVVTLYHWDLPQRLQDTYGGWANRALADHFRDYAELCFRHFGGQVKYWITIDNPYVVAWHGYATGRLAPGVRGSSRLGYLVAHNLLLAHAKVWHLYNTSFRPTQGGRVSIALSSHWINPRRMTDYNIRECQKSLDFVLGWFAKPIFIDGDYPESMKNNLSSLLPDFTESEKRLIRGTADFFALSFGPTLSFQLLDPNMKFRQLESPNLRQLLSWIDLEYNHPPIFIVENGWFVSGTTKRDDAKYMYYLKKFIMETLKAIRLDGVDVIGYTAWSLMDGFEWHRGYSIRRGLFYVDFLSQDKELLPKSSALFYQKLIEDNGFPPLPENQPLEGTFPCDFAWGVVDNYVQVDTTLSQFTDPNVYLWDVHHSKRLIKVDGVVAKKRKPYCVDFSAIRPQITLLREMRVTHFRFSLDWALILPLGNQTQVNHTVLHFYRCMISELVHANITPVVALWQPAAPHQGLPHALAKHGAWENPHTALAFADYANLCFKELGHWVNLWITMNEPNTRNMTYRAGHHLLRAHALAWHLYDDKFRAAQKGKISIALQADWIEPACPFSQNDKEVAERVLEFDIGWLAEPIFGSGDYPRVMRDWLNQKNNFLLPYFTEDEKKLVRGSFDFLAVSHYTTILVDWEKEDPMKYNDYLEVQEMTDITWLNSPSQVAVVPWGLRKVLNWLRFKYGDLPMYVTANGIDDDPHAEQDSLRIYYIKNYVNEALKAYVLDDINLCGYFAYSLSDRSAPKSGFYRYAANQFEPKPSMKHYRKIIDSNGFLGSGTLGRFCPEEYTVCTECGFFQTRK

B1: N-terminally hexahistidine-tagged 72-amino acid C-terminal tail of human FGF23 (S180 to I251), FGF23^180-251 (peptide)
peptide: SAEDDSERDPLNVLKPRARMTPAPASCSQELPSAEDNSPMASDPLGVVRGGRVNTHAGGTGPEGCRPFAKFI
notes: Expressed in E. coli; also called FGF23 C-terminal tail peptide; C-terminal tail of FGF23; not shown: N-terminal hexahistidine tag (six His)
B2: FGF23 C-terminal region peptide (S180 to S205), FGF23^180-205 (peptide)
peptide: SAEDDSERDPLNVLKPRARMTPAPAS
notes: Made by solid phase synthesis (GenScript)

What was measured:
[1] = molecular target: T2, complex of V5-tagged FGFR3c and FLAG-tagged membrane-spanning murine Klotho isolated from transfected … (murine, UniProt O35082 35-1014); test: co-immunoprecipitation competition; competitor FGF23^28-251 (1 nM)
T2 construct: Isolated from cell lysate on anti-V5 agarose beads; also called FGFR3c-Klotho complex; binary FGFR-Klotho complex; not shown: FGFR3c, V5-tagged, expressed from a vector in HEK293-Klotho cells
Excerpt: (§1) Co-immunoprecipitation may also be used to determine that an agent specifically binds the binary FGFR-Klotho complex. One aspect of the present invention utilizes co-immunoprecipitation studies. Subconfluent cultures of a HEK293 cell line ectopically expressing the FLAG-tagged membrane-spanning form of murine Klotho were transfected with expression vectors for V5-tagged FGFR1c, FGFR3c, or FGFR4. Two days later, the cells were lysed, and FGFR-Klotho complexes were isolated from cell lysate using anti-V5 agarose beads. The beads were then incubated with either FGF23¹⁸⁰⁻²⁵¹ or FGF23²⁸⁻²⁵¹ alone, or with mixtures of FGF23²⁸⁻²⁵¹ with either increasing FGF23¹⁸⁰⁻²⁵¹ or increasing FGF23¹⁸⁰⁻²⁰⁵. Bead-bound proteins were resolved on SDS-polyacrylamide gels, transferred to nitrocellulose membranes, and labeled using antibodies to Klotho, FGF23, and V5 epitope tag.

[2] = molecular target: T3, complex of V5-tagged FGFR1c and FLAG-tagged membrane-spanning murine Klotho isolated from transfected … (murine, UniProt O35082 35-1014); test: as above
T3 construct: Isolated from cell lysate on anti-V5 agarose beads; also called FGFR1c-Klotho complex (co-immunoprecipitated); binary FGFR-Klotho complex; not shown: FGFR1c, V5-tagged, expressed from a vector in HEK293-Klotho cells
Excerpt: as §1

[3] = molecular target: T1, 1:1 binary complex of the ectodomains …; test: SPR competition dose-response: FGF23^180-205 mixed with a fixed concentration of FGFR1c-Klotho, immobilized FGF23^28-251 as competitor; averaged data of two to three experiments
Excerpt: To analyze FGF23 binding to the binary FGFR1c-Klotho complex, FGF23²⁸⁻²⁵¹ was coupled to a chip, and increasing concentrations of 1:1 complex of the ectodomains of FGFR1c and Klotho in HBS-EP buffer were passed over the chip. To measure binding of the C-terminal tail of FGF23 to the binary FGFR1c-Klotho complex, FGF23¹⁸⁰⁻²⁵¹ was immobilized on a chip, and increasing concentrations of 1:1 complex of the ectodomains of FGFR1c and Klotho in HBS-EP buffer were passed over the chip. To examine whether the C-terminal tail of FGF23 can compete with full-length FGF23 for binding to the binary FGFR1c-Klotho complex, FGF23²⁸⁻²⁵¹ was immobilized on a chip. Increasing concentrations of FGF23¹⁸⁰⁻²⁵¹ were mixed with a fixed concentration of 1:1 complex of the ectodomains of FGFR1c and Klotho in HBS-EP buffer, and the mixtures were passed over the chip. As a control, competition of FGF23 in solution with immobilized FGF23 for binding to the binary FGFR1c-Klotho complex was studied. Increasing concentrations of FGF23²⁸⁻²⁵¹ were mixed with a fixed concentration of 1:1 complex of the ectodomains of FGFR1c and Klotho in HBS-EP buffer, and the mixtures were passed over the FGF23 chip. […] As a control, competition of FGF23 C-terminal tail peptide in solution with immobilized FGF23 C-terminal tail peptide for binding to the binary FGFR1c-Klotho complex was analyzed. […]

T2 sequence (O35082 35-1014, one chain of several): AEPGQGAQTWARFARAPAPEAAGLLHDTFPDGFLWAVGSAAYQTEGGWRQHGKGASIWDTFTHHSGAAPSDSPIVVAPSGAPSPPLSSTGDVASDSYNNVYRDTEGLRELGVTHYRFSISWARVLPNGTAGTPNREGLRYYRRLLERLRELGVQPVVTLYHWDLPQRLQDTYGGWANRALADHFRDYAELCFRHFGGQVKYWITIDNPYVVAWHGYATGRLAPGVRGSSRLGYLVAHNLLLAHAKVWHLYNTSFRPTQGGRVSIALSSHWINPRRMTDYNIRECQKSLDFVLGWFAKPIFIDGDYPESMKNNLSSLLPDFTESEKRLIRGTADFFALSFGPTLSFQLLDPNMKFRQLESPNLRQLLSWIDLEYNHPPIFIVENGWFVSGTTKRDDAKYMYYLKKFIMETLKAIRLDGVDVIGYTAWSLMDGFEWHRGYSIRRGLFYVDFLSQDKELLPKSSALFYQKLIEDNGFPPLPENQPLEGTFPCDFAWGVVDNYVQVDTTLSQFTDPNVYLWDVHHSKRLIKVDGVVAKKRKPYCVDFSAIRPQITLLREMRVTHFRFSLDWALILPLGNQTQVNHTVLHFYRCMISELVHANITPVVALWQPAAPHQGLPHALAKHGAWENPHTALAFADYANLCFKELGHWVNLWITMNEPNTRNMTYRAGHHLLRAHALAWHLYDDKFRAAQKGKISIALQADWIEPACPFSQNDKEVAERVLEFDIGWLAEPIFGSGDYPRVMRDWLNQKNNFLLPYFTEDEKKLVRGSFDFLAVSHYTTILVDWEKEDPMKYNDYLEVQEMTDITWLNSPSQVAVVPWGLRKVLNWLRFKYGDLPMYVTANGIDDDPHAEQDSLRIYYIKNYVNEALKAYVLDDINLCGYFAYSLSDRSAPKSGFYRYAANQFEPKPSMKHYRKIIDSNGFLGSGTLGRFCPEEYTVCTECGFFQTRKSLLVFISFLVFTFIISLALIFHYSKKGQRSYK

| molar excess over FGF23^28-251 that completely blocked its binding [1] [fold molar excess] | molar excess over FGF23^28-251 that completely blocked its binding [2] [fold molar excess] | IC50 (read off the curve) [3] [nM] | Binder |
| --- | --- | --- | --- |
| 76 | 76 |  | B1 |
|  |  | ~100 | B2 |
